Measured values reported in paper PMC6555848.

target: fluorescein-labeled phospho-Tyr peptide derived from the EPO receptor (FAM-GpYLVLDKW); test: fluorescence polarisation; 10 nM FAM-labelled peptide, increasing STAT5B protein; 20 mM HEPES, 50 mM NaCl, 0.1% NP-40 substitute, 10% DMSO; 1 h at room temperature; 1:1 model; pH of the Kd values printed in the text not stated (pH 6.8, 7.25, 7.5 or 7.9 were used)

| Kd [nM] | Substance |
| --- | --- |
| 261 | STAT5B^N642D (from UniProt P51692 1-787) (natural protein) |
| 229 | STAT5B^N642Q (from UniProt P51692 1-787) (natural protein) |
| 612 | STAT5B^N642A (from UniProt P51692 1-787) (natural protein) |
